# According to the DeepSol protein solubility set:
# Experiment: soluble on expression in E. coli; label from the status in PepcDB or PDB records
row,Sequence,soluble on expression in E. coli
1,MIDGAEVSVSRGKNNPFYFNSDRWFHTLFRNQFGHLRVLQRFDQRSKQMQNLENYRVVEFNSKPNTLLLPHHADADFLLVVLNGRAVLTLVNPDGRDSNILEQGHAQKIPAGTTFFLVNPDDEENLRIIKLAVPVNNPHRFQDFFLSSTEAQQSYLQGFSKNILEASFDSDIKEISRVLFGEEGQQQQQGQESQQEGVIVELKREQIRELTKHAKSSSKKSLSSEDQPFNLRNQKPIYSNKLGRWFEITPEKNPQLRDLDMFIRSVDMKEGSLLLPHYNSKAIVILVINEGKANIELVGQREQQKQQEEQEESWEVQRYRAELSEDDVFIIPATYPVAINATSNLNFFAFGINAENNQRNFLAGEKDNVISEIPTEVLDVTFPASGEKVQKLIKKQSESQFVDAQPEQQEREEARKGGKGPFVY,soluble
2,MKWSSMLKVSAISLSVFTAVSAKAQLGEPEIEDLKFGFIKLTDMAPLAVAYEKGFFEDEGLYVTLEAQANWKVLLDRVIDGELDGAHMLAGQPLGATIGVGTKAEVITAFSMDLNGNAITVSNDTWEQMKPHIPKQPDGKPVHPIKADSLKPVVDSYRDKGKSFNMGMVFPVSTHNYELRYWLAAGGIHPGFYAPDSGDNSGQLDADVLLSVTPPPQMPATMEAGTIKGYCVGEPWNQQAVFKGIGTPVVTDYEIWKNNPEKVFGVSKAWAEKNPNTHIRVVKALIRAAHWLDENSNANRQEAVKMLAKSEYVGADADVIANSMTGTFEYEKGDKRDVPDFNVFFRHNATYPYYSDAIWYLTQMRRWGQISSEKSDDWYMDVAKEVYRPDIYQQAAQALIEDGVLSKKDFPDFSAEDGFRPPQTHFIDNIVYDGREPNKYLEKFSIGLKGKDKVMAGDPLEHHHHHH,soluble
3,MTGGTGADAASAGASSTRPELRGERCLPPAGPVKVTPDDPRYLNLKLRGANSRFNGEPDYIHLVGSTQQVADAVEETVRTGKRVAVRSGGHCFEDFVDNPDVKVIIDMSLLTEIAYDPSMNAFLIEPGNTLSEVYEKLYLGWNVTIPGGVCGGVGVGGHICGGGYGPLSRQFGSVVDYLYAVEVVVVNKQGKARVIVATRERDDPHHDLWWAHTGGGGGNFGVVTKYWMRVPEDVGRNPERLLPKPPATLLTSTVTFDWAGMTEAAFSRLLRNHGEWYERNSGPDSPYTGLWSQLMIGNEVPGMGESGFMMPIQVDATRPDARRLLDAHIEAVIDGVPPAEVPEPIEQRWLASTPGRGGRGPASKTKAGYLRKRLTDRQIQAVYENMTHMDGIDYGAVWLIGYGGKVNTVDPAATALPQRDAILKVNYITGWANPGNEAKHLTWVRKLYADVYAETGGVPVPNDVSDGAYINYPDSDLADPGLNTSGVPWHDLYYKGNHPRLRKVKAAYDPRNHFHHALSIRP,soluble
4,MGNMWGKNRGAVERFQTRREALFDDFKSRSAPASLVNNPRIVKGNETAEQIETTFNEILKLDLIALKSALQTDKYNAYTVLCAFVWRAIDVNSEINCITEVIREAFNTAEALDDNYAQTGEKGQLFGLPFSVKSNFYMENYDVTVGLAKLLEQPKTTTCPMVQFLSDQGAVPFCLTNVPQGLLSYVSSNPIYGTTKNPWDFSRTPGGSSGGEAALLAAGGAAFGIGSDLAGSLRIPAAFCGLVTLKPTQDRLCVTDTHGGLPGRGRLGLSFGFYTRSVKEQEFLLGLIVGRSEYLELCPMSSPAKLEKHIEKDQKLVIGWFVDDGFNPVVPSNRRAVEETVKSLQAKGHQVVELKLADVSEEFPPFAVADMLFRNVMPDNGAYMSEMYAGEQYDEHMKLFIRLVCLKQNFLVSFLLRYGVMPFAKLALSKRLACIGSAYNSDLAACRQNQENTDSYKLQWIRYWKSKKIDALICPSFITPAQPFEYPAQLSNGAFITGLFNMLDVPAGVVPVSPVNQKDVDQLIDGFSTEGDLLLKKQREAARGTTGLPNAVQVVTLPNCEEMCLRVMRLVEESAEGVQRLQWRVGASAAPIDVENTPAGVVSSLEHFERVNLLH,not soluble
5,MSRSKKTRRISDIMPARKADKKPALPISNSKKRKPTRYELDVQAREEKKKRKHKGLPTGSRNVITEQKTASAKVKKDPRVGSRKKVPLMVEFVNKPEKGQMIKPVPLEPSNHATKATVSPEVELTQLENNECLNQLLDQLEAGKVLSTQDQQFVDECLDRVHELIIELGIEDDEENNEDLLLRQFETIDINKFK,not soluble
6,SLRIEHFETISCDAGWRNYYFLKVVTSDGIVGWSEYDESFGPPGLTAVIEQLGARLVGKSVYDHEEAYGRLAASLRPAPYGLSAEAIGAIENALLDAKAKSLGLPVYQLLGGKHRGSIPIYWSHCATWRISHPNLYPPAIVDLDGVKKAGEDARKSGISALKTNLFINENGKPRQWMAGFGSPYAPSLNVDKALLRNLRAHLEALRDGAGPDVDILVDLNFNARTEGYLSLINAIKDFDLFWVELDIYNPDAMAYIRQRSHAPIAACETLFGIRQFLPYFQAQSMDVAIVDAVWNGVWQAMKIASVADAFDVNIAPHNFYSHLSTMMNVHFAAAVPNLRVMEVDVDRLAWDDQLFTRTPEIVNGAIQVPDAPGWGCDPIEEALRAHPPQVRRSHLGL,soluble
7,MSLKSIFISGAANGIGKAVALKFLHEGWLVGAYDLAEITYSHPNLRWGYLNVRQSESWDKALEDFATHTGGTIDVVDNNAGVIIEGPLQDAEEGSVDKLLAINVNGVTLGARAAHPYLARTPGAQLLNMSSASAVYGQPQIAVYSASKFYVAGLTEALNLEWRKDDIRVVDVWPLWAKTDLVNGVKAKSLKRLGVRITPEQVAQAVWDAVHPKSRWAKGKVHHGVSKLDKALYLMKSLSPDRVAMCFARLIAGEGHHHHHH,soluble
8,MIRSMTAYARREIKGEWGSATWEMRSVNQRYLETYFRLPEQFRSLEPVVRERIRSRLTRGKVECTLRYEPDVSAQGELILNEKLAKQLVTAANWVKMKSDEGEINPVDILRWPGVMAAQEQDLDAIAAEILAALDGTLDDFIVARETEGQALKALIEQRLEGVTAEVVKVRAHMPEILQWQRERLVAKLEDAQVQLENNRLEQELVLLAQRIDVAEELDRLEAHVKETYNILKKKEAVGRRLDFMMQEFNRESNTLASKSINAEVTNSAIELKVLIEQMREQIQNIE,not soluble
9,MRGSHHHHHHGMASMTGGNNMGRDLYDDDDKDPGRRMMHNSNADDAALTTDVVVVGGGPVGLMLAGELRAGGVGALVLEKLVEPVGHDRAGALHIRTVETLDLRGLLDRFLEGTQVAKGLPFAGIFTQGLDFGLVDTRHPYTGLVPQSRTEALLAEHAREAGAEIPRGHEVTRLRQDAEAVEVTVAGPSGPYPVRARYGVGCDGGRSTVRRLAADRFPGTEATVRALIGYVTTPEREVPRRWERTPDGILVLAFPPEGGLGPGWSSSSTGHSPAADEGPVTLEDLGAAVARVRGTPLTLTEPVSWLSRFGDASRQAKRYRSGRVLLAGDAAHVHFPIGGQGLNTGLQDAVNLGWKLAARVRGWGSEELLDTYHDERHPVAERVLLNTRAQLALMRPDEQHTTPLRGFVEELLGTDEVNRYFTGMITGTDVRYATFAPAASARPHPWPGRFAGGLVLSRPSGEPVPVAELLRSARPLLLDLAGRADLREATRPWSDRVSVVAGEATVEPPAQALLVRPDGYVAWAGSPAATADELRASLARWFGPPANREPVGHQERAGRRGRPLSALKPE,soluble
10,MSLTTKDHSLATESPTLQQLGEFAVIDRLVRGRRQPATVLLGPGDDAALVSAGDGRTVVSTDMLVQDSHFRLDWSTPQDVGRKAIAQNAADIEAMGARATAFVVGFGAPAETPAAQASALVDGMWEEAGRIGAGIVGGDLVSCRQWVVSVTAIGDLDGRAPVLRSGAKAGSVLAVVGELGRSAAGYALWCNGIEDFAELRRRHLVPQPPYGHGAAAAAVGAQAMIDVSDGLLADLRHIAEASGVRIDLSAAALAADRDALTAAATALGTDPWPWVLSGGEDHALVACFVGPVPAGWRTIGRVLDGPARVLVDGEEWTGYAGWQSFGEPDNQGSLGEGHHHHHH,soluble
11,AHHHHHHGSKIARVNGLWITIPNVRYSFFNTPYIGHRIGTAVDVYFEDRALFPFEEGKLIEVRKIRTPRYIPVDHDYLMVFKLGEFCLKVLHVDPSVKIGEKVFLGDEIGKLRLSGFFSPWSDKHAHFEVRDCNDRYRARGAFPLFPEVKPLVPIVKGNTFEVVERKGHYLWLKPLETKGKGMTPLGNIEGGLPHYRYGAIFSGREGKLFGIDVKAQEILENGVGIFKPNFEVLANGVKVRGIGVYCNEERVKLIGGNFEVGDIIKIEIKARLGT,not soluble
12,MSLDGGNSLFQLRKELYSTDNKLSSIDDDLSDRNTTEDLIMLPSSANSNFSSPYTSNNKYGNTKILTETEKYSVTKLSTDLSFLPGSNGNNNTIDTHHFEGLVDTALQKALVNDLDHIYIWNYNSIQKDTPICKISLHDDYSVLSSPPICLFTSSISSTNNDTANYNNNASGNINSGKFNNGICIINKKNSQFLYFEDISTINNLYTKLSKSKAHVLDLKLKDNENITSTINCEPSGIIIATSLGRVLFITIKDSTGKPKLELKQQLIKPQNSFFFRNLDSSKEIISLKKGPIVGKGERLLYITTRGGSLQIWQLSINSKSFKRLEINIYEHVLDSLQDLYPFAHGTLAFLDSHPIYSDTSSAHLTLASISNGNEIYYLMITVILDEKTNSFQIFSIYKLNTYFTKSTVDLNHKPQLFIPNALDSIVSPTLSVYVLFNNAVVMTQISSKLDSSFPLRRKWEDIIRFNKDVEIIGSGYSTDSIYVICKDMGVLKIASHSNNNQELELVSFVKSHIDQAVYFSTITSNEGHHHHHH,soluble
13,MGSDKIHHHHHHMPQLQTNNTALSTQQSAEMKTTRLLKVLKIMFPRENWTSQKLTSEVNVKGSGVYRFEHGTIAHLGQPGGPRTEHLWEMTVDRVWAKALIEAHNQAQESEALVRTQAEVYPKDWYGLRLRSPAEAAIAEALQTKGVLFFVNTGCRLHNHSKQYETREVDFLVFHQGKVRILEVDGITYHQNPLADYKRDRLFDREGIRTSRFSAQECFENPNGVVEEFLGLFKF,not soluble
14,MEFNLSALGSAPAAEETYDVVIIGGGPAGLTAGIYAGRAQLKTVIVEKGLPGGQIAQTDEVENYPGFPEGISGPELASRMVRQAEKFGARIVMDEVLGLEKAEGGYLVRGYERNYRARAVIVATGANPRRLGVPGEDKFYGRGVSTCATCDGFFYRDKEVVVVGGGDAAVEEGIFLTKFARKVTLVHRRDELRANKVAQKRAFQNPKMHFLFSHVVTEILGEDQVTGVRLKNLKTGEEYVYPTDGVFVFIGHEPNTAFLKGVVELRPDGYIAVRDEVFTSEPGIFAAGDVADPIYRQLTTSVGAGTRAAMMAERYLAEEAEKVKG,soluble
15,MAHHHHHHMCREPYLLLSMHRLLLAAYWPDSDRLHCSEREWPLTEHSGAVPFMVESANGRVLPWCPWRDNSVAELLAVVRGMMELAGMKLGIVVGDRLVPD,soluble
16,MTMKCFLVILPLLVLYWIVSNRKRSGPLTNPHYKECLRKEWYTSPNVSSTEDFGSSYQISFADVQKTFKWLYLPEIDDPEIILTVMTRVDALARRNVLRKTWMTQRNRIKSIFVIGLGGDVDQKTKELVMSEAALYGDMVVTNIEDSFSKVAFKMLSMLLYGFSKVPSAKFIGKVDDDVLFYPNVLLSYMDNNTDTIHPQGSRMYGHITETRFITAGIPTGAECCEKFDSDSKCANYVTFLGGSFLMFTRQAVEGVLMASKHRKFHRIDDTMVTGYLADDVGAQRVNMTMMFMGYEPTKEPILFSSHIPLKDHEYLEQYRIQMADFKEQRLFTKYIGE,not soluble
17,MLHRIANGIIEEAAENGCTIIAFEELSGTRDRLPEASWGHKWAFERLYEYVKYKSELHGIDVAVVDPENTSRRCSHCGFTHPDNRDSEAFVCLKCGYENHADYNAAKNIGLRYLRRNQTGDGGGAPVGVRLNRGTLNANGEYETPAGDSGQSGSPRESPTLNEARSSDRAKLEHHHHHH,not soluble
18,GPGSMPIKAVVTDLDGTLLDPQHCISNYAAEVLKKIKEKGICFIVATGRPYAEVFNRIRHCHLAPDYIITSNGARIHDGAFNVVREHNLRPELVESLARVRTVKDPATGAELPKKFTTNIYRGAEWLTDKSIPEVSKAFHTDFQCTDLRERFYELQASELGDVHEIWFAGDHDELVLLDNALREKYPGDLCCTFSLPHLLDCVPAGVNKGNGVREAAEMLGLALDEVACFGDGMNDESMLQVTSTSFIMANAQQRLKDAVPHAQIIGSNADDGVAKKLEEMFFSA,soluble
